Reference: the supplement of paper PMC10126150
± gives the standard deviation of the averaged measurements.

System: ATP
Assay: switch fluorescence ratio, 500 uM ATP over buffer (Cy3 cluster intensity, sum of 5 cycles each) (fold (ratio)); higher = stronger signal-on switching upon ATP binding; sequences stand for … in TCGTCGGCAGCGTCAGATGTGTATAAGAGACAGTTTTTTTTTTTTTTTTTTTTTTTTT…TC
Conditions: aptamer strand: ATP DNA aptamer (quencher-CACCTGGGGGAGTATTGCGGAGGAAGG + anchor), 100 nM annealed; ATP concentration: 500 uM
Procedure, shortened: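 Clusters with intensities outside 100-1000 RFU were excluded. The remaining Cy3-labelled switching-strand clusters on a modified Illumina MiSeq flow-cell had been annealed to 100 nM quencher-labelled ATP aptamer and imaged in selection buffer, then after 15 min with 500 uM ATP at 22 °C, for five cycles separated by NaOH stripping and re-annealing. The fluorescence ratio, averaged per switch-domain sequence, is each cluster's summed target-cycle Cy3 intensity over its summed buffer-cycle Cy3 intensity.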
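Also: ATP exposure 15 min at 22 °C before imaging.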

Sequence | switch fluorescence ratio
GGGGTTTGTT | 0.992 ± 0.034
GGGGTTTTTG | 0.995 ± 0.029
GGGTAAAGGA | 0.985 ± 0.028
GGGTAACGGT | 0.9802 ± 0.0045
GGGTAAGGGA | 0.961 ± 0.013
GGGTAAGGGG | 1.05 ± 0.098
GGGTAAGTAT | 0.958 ± 0.04
GGGTAAGTGC | 1.047 ± 0.0017
GGGTAATATG | 1.01 ± 0.049
GGGTACCGAC | 1.08 ± 0.036
GGGTACGCCG | 0.934 ± 0.025
GGGTACGGAT | 1.04 ± 0.016
GGGTACGGTA | 1.05 ± 0.029
GGGTACGGTG | 1.07 ± 0.022
GGGTACTTGG | 0.99 ± 0.026
GGGTAGACTG | 0.955 ± 0.03
GGGTAGCAGG | 1.04 ± 0.01
GGGTAGCGCT | 0.969 ± 0.039
GGGTAGGAGG | 0.982 ± 0.013
GGGTATATGT | 1 ± 0.014
GGGTATATTT | 1 ± 0.065
GGGTATGAAG | 1.04 ± 0.049
GGGTATGTAG | 0.986 ± 0.024

Sequence | switch fluorescence ratio
GGGTATTGAG | 0.991 ± 0.012
GGGTATTTTG | 0.997 ± 0.046
GGGTCACTGG | 0.9765 ± 0.0056
GGGTCAGGTG | 3.44 ± 0.48
GGGTCAGTTT | 1.04 ± 0.054
GGGTCCATGC | 1.01 ± 0.018
GGGTCCATTC | 1.01 ± 0.02
GGGTCGCGTG | 1.02 ± 0.033
GGGTCTAAGG | 1.007 ± 0.0045
GGGTCTAGGA | 1.006 ± 0.0052
GGGTCTCGAG | 0.9866 ± 0.0096
GGGTCTGGTG | 1.04 ± 0.057
GGGTCTGGTT | 0.976 ± 0.033
GGGTGAAAAG | 1.04 ± 0.033
GGGTGAAGAA | 0.967 ± 0.019
GGGTGAAGGC | 0.971 ± 0.058
GGGTGAGCTG | 0.98 ± 0.04
GGGTGAGGCG | 0.981 ± 0.038
GGGTGAGGGT | 0.993 ± 0.015
GGGTGAGGTT | 0.997 ± 0.021
GGGTGAGTAG | 1.02 ± 0.067
GGGTGATGGT | 0.964 ± 0.053
GGGTGATTGA | 0.988 ± 0.021

Sequence | switch fluorescence ratio
GGGTGCCGGT | 1.01 ± 0.024
GGGTGCTGCT | 0.954 ± 0.033
GGGTGGAATT | 1.005 ± 0.0092
GGGTGGATGT | 1.01 ± 0.012
GGGTGGCATT | 0.957 ± 0.0032
GGGTGGCGTG | 0.981 ± 0.082
GGGTGGGCCA | 0.969 ± 0.035
GGGTGGGGCA | 1.01 ± 0.045
GGGTGGGTGG | 0.989 ± 0.017
GGGTGTAATC | 1.01 ± 0.024
GGGTGTAGCC | 1.04 ± 0.037
GGGTGTAGTT | 0.999 ± 0.036
GGGTGTGAGG | 0.983 ± 0.025
GGGTGTTCGT | 1.004 ± 0.0028
GGGTGTTGTC | 1.006 ± 0.01
GGGTGTTTGT | 1 ± 0.018
GGGTGTTTTG | 0.996 ± 0.013
GGGTTAAAAC | 1.01 ± 0.043
GGGTTAAACT | 0.987 ± 0.023
GGGTTAGGGG | 1.01 ± 0.04
GGGTTATAGG | 0.978 ± 0.025
GGGTTATGCT | 0.99 ± 0.046
GGGTTCAGAG | 1 ± 0.042

Sequence | switch fluorescence ratio
GGGTTCCTAG | 1.01 ± 0.041
GGGTTCTCTC | 0.98 ± 0.011
GGGTTCTTTG | 1.03 ± 0.064
GGGTTGACCC | 0.993 ± 0.024
GGGTTGACGC | 1.01 ± 0.013
GGGTTGCTAC | 1.02 ± 0.017
GGGTTGGCTA | 0.964 ± 0.047
GGGTTGGCTG | 0.989 ± 0.048
GGGTTGGGGG | 1 ± 0.032
GGGTTGGGGT | 0.997 ± 0.041
GGGTTGTATG | 0.997 ± 0.038
GGGTTGTCCG | 1.05 ± 0.07
GGGTTGTCGT | 1.01 ± 0.062
GGGTTGTGAT | 0.984 ± 0.014
GGGTTTAAGT | 0.986 ± 0.023
GGGTTTAATC | 1.08 ± 0.077
GGGTTTACCT | 1.05 ± 0.051
GGGTTTAGCG | 1.014 ± 0.0022
GGGTTTAGGG | 1 ± 0.045
GGGTTTATGA | 0.98 ± 0.04
GGGTTTCACG | 0.983 ± 0.023
GGGTTTGAGC | 0.981 ± 0.033
GGGTTTGGCT | 1.01 ± 0.029

Sequence | switch fluorescence ratio
GGGTTTGTTA | 1 ± 0.018
GGGTTTGTTT | 1.02 ± 0.046
GGGTTTTATC | 0.999 ± 0.035
GGGTTTTCGG | 0.987 ± 0.026
GGGTTTTGGA | 0.998 ± 0.039
GGGTTTTTAG | 0.994 ± 0.033
GGTAAACGGA | 1.02 ± 0.044
GGTAAAGGGG | 0.991 ± 0.058
GGTAAATTTT | 1 ± 0.018
GGTAACATTT | 1.061 ± 0.0053
GGTAACGGGG | 1.06 ± 0.065
GGTAACTTGG | 1.01 ± 0.034
GGTAATATTA | 1.07 ± 0.051
GGTAATTGTG | 0.987 ± 0.016
GGTAATTGTT | 0.998 ± 0.025
GGTACATGGG | 0.975 ± 0.021
GGTACGAAAG | 1.01 ± 0.026
GGTACGATGG | 1.01 ± 0.015
GGTACTATAG | 1.034 ± 0.0066
GGTACTCGTA | 1.01 ± 0.039
GGTACTTCGA | 0.9938 ± 0.0015
GGTAGATATG | 1.021 ± 0.0078
GGTAGATCGG | 1.004 ± 0.0061

Sequence | switch fluorescence ratio
GGTAGGAACC | 1.01 ± 0.021
GGTAGGCCTG | 0.989 ± 0.056
GGTAGGCGGG | 0.959 ± 0.018
GGTAGGCTGC | 0.986 ± 0.018
GGTAGGGGCG | 1.03 ± 0.031
GGTAGGGGTA | 1.03 ± 0.084
GGTAGGGGTC | 1.01 ± 0.056
GGTAGGGGTG | 1.07 ± 0.033
GGTAGTGGGA | 1 ± 0.046
GGTAGTGGGG | 0.987 ± 0.021
GGTATAAATT | 0.939 ± 0.011
GGTATAAGAT | 1.01 ± 0.013
GGTATACTGA | 1.05 ± 0.049
GGTATAGGGG | 0.995 ± 0.054
GGTATAGGTC | 1.05 ± 0.011
GGTATATATG | 0.995 ± 0.055
GGTATATCTG | 1.01 ± 0.039
GGTATATGTG | 1 ± 0.025
GGTATCACCT | 1.04 ± 0.034
GGTATCTCGA | 1.03 ± 0.044
GGTATCTGAT | 1.03 ± 0.02
GGTATGGAGG | 0.988 ± 0.038
GGTATGGCGA | 0.939 ± 0.048

Sequence | switch fluorescence ratio
GGTATGTAGG | 0.978 ± 0.012
GGTATTATAT | 0.98 ± 0.038
GGTATTATGG | 1 ± 0.029
GGTATTCGGC | 1.01 ± 0.017
GGTATTCTGT | 0.951 ± 0.03
GGTATTGGAG | 0.984 ± 0.015
GGTATTGGTA | 1.13 ± 0.25
GGTATTGTTG | 1 ± 0.024
GGTATTTTAA | 1.04 ± 0.027
GGTCAAACCC | 1.032 ± 0.0044
GGTCAAGCTC | 1.02 ± 0.02
GGTCAAGGCC | 0.999 ± 0.041
GGTCAAGTGG | 1 ± 0.02
GGTCAAGTTG | 0.961 ± 0.019
GGTCAGGGGA | 0.988 ± 0.04
GGTCATAGGG | 0.958 ± 0.022
GGTCATGCGG | 1.01 ± 0.021
GGTCCAAAAG | 1.008 ± 0.0075
GGTCCAGGAT | 1.018 ± 0.0068
